Data as given in patent US20030235857A1 (WHITEHEAD INSTITUTE FOR BIOMEDICAL RESEARCH A DELAWARE, published 2003).

B1: Tpk1 fused to the Gal4 DNA binding domain (enzyme, UniProt P04386 1-147, looked up)
chain: MKLLSSIEQACDICRLKKLKCSKEKPKCAKCLKNNWECRYSPKTKRSPLTRAHLTEVESRLERLEQLFLLIFPREDLDMILKMDSLQDIKALLTGLFVQDNVNKDAVTDRLASVETDMPLTLRQHRISATSSSEESSNKGQRQLTVSMSTEEQNGGGQKSLDDRQGEESQKGETSERETTATESGNESKSVEKEGGETQEKPKQPHVTYYNEEQYKQFIAQARVTSGKYSLQDFQILRTLGTGSFGRVHLIRSRHNGRYYAMKVLKKEIVVRLKQVEHTNDERLMLSIVTHPFIIRMWGTFQDAQQIFMIMDYIEGGELFSLLRKSQRFPNPVAKFYAAEVCLALEYLHSKDIIYRDLKPENILLDKNGHIKITDFGFAKYVPDVTYTLCGTPDYIAPEVVSTKPYNKSIDWWSFGILIYEMLAGYTPFYDSNTMKTYEKILNAELRFPPFFNEDVKDLLSRLITRDLSQRLGNLQNGTEDVKNHPWFKEVVWEKLLSRNIETPYEPPIQQGQGDTSQFDKYPEEDINYGVQGEDPYADLFRDF
notes: Two-hybrid bait used for retesting positive clones
B2: Tpk3 fused to the Gal4 DNA binding domain (enzyme, UniProt P04386 1-147, looked up)
chain: MKLLSSIEQACDICRLKKLKCSKEKPKCAKCLKNNWECRYSPKTKRSPLTRAHLTEVESRLERLEQLFLLIFPREDLDMILKMDSLQDIKALLTGLFVQDNVNKDAVTDRLASVETDMPLTLRQHRISATSSSEESSNKGQRQLTVSMYVDPMNNNEIRKLSITAKTETTPDNVGQDIPVNAHSVHEECSSNTPVEINGRNSGKLKEEASAGICLVKKPMLQYRDTSGKYSLSDFQILRTLGTGSFGRVHLIRSNHNGRFYALKTLKKHTIVKLKQVEHTNDERRMLSIVSHPFIIRMWGTFQDSQQVFMVMDYIEGGELFSLLRKSQRFPNPVAKFYAAEVCLALEYLHSKDIIYRDLKPENILLDKNGHIKITDFGFAKYVPDVTYTLCGTPDYIAPEVVSTKPYNKSVDWWSFGVLIYEMLAGYTPFYNSNTMKTYENILNAELKFPPFFHPDAQDLLKKLITRDLSERLGNLQNGSEDVKNHPWFNEVIWEKLLARYIETPYEPPIQQGQGDTSQFDRYPEEEFNYGIQGEDPYMDLMKEF
notes: Two-hybrid bait used for retesting positive clones; also called YKL166c

How the values were obtained:
Experiment in all cases: yeast two-hybrid, GAL4-ADE2 reporter, growth without adenine
[1] = molecular target: T1, Sfl1 fused to the Gal4 activation domain (Saccharomyces cerevisiae, UniProt P20134 1-766, limits assumed)
T1 construct: also called YOR140w
T1 sequence (looked up): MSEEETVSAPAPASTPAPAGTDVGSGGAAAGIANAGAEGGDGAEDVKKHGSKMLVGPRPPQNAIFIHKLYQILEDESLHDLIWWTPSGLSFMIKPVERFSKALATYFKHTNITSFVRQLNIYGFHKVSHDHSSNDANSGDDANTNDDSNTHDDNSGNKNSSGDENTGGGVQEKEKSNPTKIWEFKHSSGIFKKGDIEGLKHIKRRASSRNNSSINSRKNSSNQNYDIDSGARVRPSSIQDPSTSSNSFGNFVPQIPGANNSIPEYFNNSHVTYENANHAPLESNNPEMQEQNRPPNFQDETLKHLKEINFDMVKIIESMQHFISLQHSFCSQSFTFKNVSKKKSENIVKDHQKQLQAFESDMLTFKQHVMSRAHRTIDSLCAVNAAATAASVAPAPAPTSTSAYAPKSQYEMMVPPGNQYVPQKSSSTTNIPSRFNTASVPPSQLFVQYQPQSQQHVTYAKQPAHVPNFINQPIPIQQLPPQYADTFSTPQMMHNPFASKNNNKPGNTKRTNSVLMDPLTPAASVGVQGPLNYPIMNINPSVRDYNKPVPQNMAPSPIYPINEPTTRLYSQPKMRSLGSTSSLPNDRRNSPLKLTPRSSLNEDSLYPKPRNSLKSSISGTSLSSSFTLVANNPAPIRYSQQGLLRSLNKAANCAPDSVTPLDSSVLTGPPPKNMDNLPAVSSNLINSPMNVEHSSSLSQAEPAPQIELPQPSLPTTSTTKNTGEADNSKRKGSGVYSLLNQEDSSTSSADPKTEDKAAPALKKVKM
Text: (§1) Other additional members of these signal transduction cascades are identified through a variety of standard techniques. First, enhancers and suppressors of phenotypes of mutant strains are isolated using standard techniques known to those skilled in the art (Ausubel, supra). Second, proteins which interact with pathway members are isolated using yeast two-hybrid methods (Fields and Song, Nature 1989, 340:245-246; Chien et al., Proc. Natl. Acad. Sci. USA 1991, 88:9578-9582; Brent and Finley, Annu. Rev. Genet. 1997, 31:663-704). In one example, proteins which specifically interact with an A kinase catalytic subunit Tpk2, and not with related proteins Tpk1 and Tpk3 were identified and shown to be important for pseudohyphal development. […] Similarly, haploid tpk2 mutants were defective for invasive growth and tpk3 mutants were hyperinvasive (FIG. 2A). tpk1 mutants were indistinguishable from wild-type strains as both haploids and diploids. The accentuated filamentation and invasion phenotypes of tpk3 mutants required a functional Tpk2 as tpk2 tpk3 mutants had the same phenotype as tpk2 single mutants. As Tpk2 appeared to be uniquely required for pseudohyphal growth, we used a two-hybrid screen to identify proteins that interact specifically with Tpk2. The intact open reading frame of TPK2 was fused to coding sequence for the Gal4 DNA binding domain and used to screen a library of yeast genomic fragments fused to coding sequence for the Gal4 transcriptional activation domain. Activation of the GAL4-ADE2 reporter, leading to adenine-independent growth of an ade-strain was taken as preliminary evidence for an interaction between the Gal4 DNA binding domain:Tpk2 fusion and the Tpk2 interacting protein fused to the Gal4 activation domain. Positive clones were then retested in the two-hybrid assay with Tpk1, Tpk2, Tpk3, or Dph1 fused to the Gal4 DNA binding domain. DPH1, a gene required for diphthamide biosynthesis, as used to control for interactions that were not specific to the PKA isoforms.

[2] = molecular target: B1
Text: as §1

[3] = molecular target: B2
Text: as §1

| Binder | binding result [1] | binding result [2] | binding result [3] |
| --- | --- | --- | --- |
| B1 | no binding | – | – |
| Mga1 fused to the Gal4 activation domain (other, Saccharomyces cerevisiae, UniProt P53050 1-456, looked up, not shown: large carriers, also called YGR249w) MQPKTFVHQLHAILLEPEVNKWIYWSPTDNTVFFLKPYDPNFSTHVLKRYFKHGNVNSFVRQLHMYGFHKLSHPSPDQSSANNGNVKELVEWKFTHPSGFFFKEANAGILNKIQRKSTGVGKDGKRKNILSPISVSYVDASRLNVLSQQSGPVSAREPSNMFMGSPVHYSTSQSPPHISIPQQQQSSGPYLISSLPPQQPTVNMMRRQSISARMMNSYDYPNQFSTQDSIVQPQQPQQVLSPQALSGPPMKKSGTLSSTDDLKTTSLPIVNYPMPYHPGAFAQQQQQQQQPLPTVPPYSSYSTPFPSMMNSLSNSASNSPALGVCNNNVTLPKKSNISERQALDNHIQTLKNSLSTITDLIEKHINSASQDENKTLTNDAMNKDLRTSLSLLQNSKEEIIQLESKWMSMQSVKTTALPLQETTNTSSTLTSLTSSIIPKSIPIITKGEVATKPASY | – | no binding | no binding |
| B2 | no binding | – | – |
